*1 amine or outer side, *2 acyl side, *3 side chain or, on linkers, in order; H or OH if unused. Bridges are numbered along the chain shown (N, C = ends). Primed or numbered codes have the meaning given here. [ ]: non-standard residue; d: D form. The star is where a group is joined. 3‑methylbenzoyl = 3-methylbenzoyl group bridging Dap and AET, O=C(c1cccc(C[*:3])c1)[*:2]; Ttds = 1,13-diamino-4,7,10-trioxatridecan-succinamic acid, NCCCOCCOCCOCCCNC(=O)CCC(=O)*; dE(AGLU) = D-glutamic acid bearing 1-amino-1-deoxy-D-glucitol; Pro(trans-4-NH2) = O=C([C@@H]1C[C@@H](N[*:3])CN1[*:1])[*:2]; DO3AM = NC(=O)CN1CCN(CC(N)=O)CCN(CC(=O)*)CCN(CC(N)=O)CC1; DOTA = O=C(O)CN1CCN(CC(=O)O)CCN(CC(=O)*)CCN(CC(=O)O)CC1; Trp(5-Cl) = N[C@@H](Cc1c[nH]c2ccc(Cl)cc12)C(=O)O; Pyridine(2,6-diCH2) = c1cc(C[*:1])nc(C[*:2])c1; 2Lut″ = 2,6-lutidylidene linking two thiols; APAc = 4-amino-1-carboxymethylpiperidine; Glutaryl = O=C(CCCC(=O)[*:2])[*:1]; AGLU = 1-amino-1-deoxy-D-glucitol; mli = maleimide bridging scaffold; Hyp = O=C(O)[C@@H]1C[C@@H](O)CN1; Cysteamide = C(CS[*:3])N[*:1]; Tle = CC(C)(C)[C@H](N)C(=O)O; αMeK = C[C@](N)(CCCCN)C(=O)O; hCys = N[C@@H](CCS)C(=O)O; Api = NC1(C(=O)O)CCNCC1; Thp = NC1(C(=O)O)CCOCC1; Dap = NC[C@H](N)C(=O)O; Aib = CC(C)(N)C(=O)O
B1: Ac-Asp-Trp-5Clw-Hyp-Glu-leu-[Cys(2Lut)-Thp-Ile-Ile-Cys]-NH2 (peptide)
peptide: Ac-DW[Trp(5-Cl)][Hyp]E[dL]C[Thp]IIC-NH2
modifications: linker 7-11 via Pyridine(2,6-diCH2)
SMILES: CC[C@H](C)[C@@H]1NC(=O)[C@H]([C@@H](C)CC)NC(=O)C2(CCOCC2)NC(=O)[C@@H](NC(=O)[C@@H](CC(C)C)NC(=O)[C@H](CCC(=O)O)NC(=O)[C@@H]2C[C@@H](O)CN2C(=O)[C@H](Cc2c[nH]c3ccc(Cl)cc23)NC(=O)[C@H](Cc2c[nH]c3ccccc23)NC(=O)[C@H](CC(=O)O)NC(C)=O)CSCc2cccc(n2)CSC[C@@H](C(N)=O)NC1=O
B2: Ac-Asp-Trp-5Clw-Hyp-Glu-leu-[Cys(2Lut)-Thp-Arg-Ile-Cys]-NH2 (peptide)
peptide: Ac-DW[Trp(5-Cl)][Hyp]E[dL]C[Thp]RIC-NH2
modifications: linker 7-11 via Pyridine(2,6-diCH2)
SMILES: CC[C@H](C)[C@@H]1NC(=O)[C@H](CCCNC(=N)N)NC(=O)C2(CCOCC2)NC(=O)[C@@H](NC(=O)[C@@H](CC(C)C)NC(=O)[C@H](CCC(=O)O)NC(=O)[C@@H]2C[C@@H](O)CN2C(=O)[C@H](Cc2c[nH]c3ccc(Cl)cc23)NC(=O)[C@H](Cc2c[nH]c3ccccc23)NC(=O)[C@H](CC(=O)O)NC(C)=O)CSCc2cccc(n2)CSC[C@@H](C(N)=O)NC1=O
B3: Ac-Asp-Trp-5Clw-Hyp-Glu-leu-[Cys(2Lut)-Thp-Glu-Ile-Cys]-NH2 (peptide)
peptide: Ac-DW[Trp(5-Cl)][Hyp]E[dL]C[Thp]EIC-NH2
modifications: linker 7-11 via Pyridine(2,6-diCH2)
SMILES: CC[C@H](C)[C@@H]1NC(=O)[C@H](CCC(=O)O)NC(=O)C2(CCOCC2)NC(=O)[C@@H](NC(=O)[C@@H](CC(C)C)NC(=O)[C@H](CCC(=O)O)NC(=O)[C@@H]2C[C@@H](O)CN2C(=O)[C@H](Cc2c[nH]c3ccc(Cl)cc23)NC(=O)[C@H](Cc2c[nH]c3ccccc23)NC(=O)[C@H](CC(=O)O)NC(C)=O)CSCc2cccc(n2)CSC[C@@H](C(N)=O)NC1=O
B4: Ac-Asp-Trp-5Clw-Hyp-Glu-leu-[Cys(2Lut)-Thp-Phe-Ile-Cys]-NH2 (peptide)
peptide: Ac-DW[Trp(5-Cl)][Hyp]E[dL]C[Thp]FIC-NH2
modifications: linker 7-11 via Pyridine(2,6-diCH2)
SMILES: CC[C@H](C)[C@@H]1NC(=O)[C@H](Cc2ccccc2)NC(=O)C2(CCOCC2)NC(=O)[C@@H](NC(=O)[C@@H](CC(C)C)NC(=O)[C@H](CCC(=O)O)NC(=O)[C@@H]2C[C@@H](O)CN2C(=O)[C@H](Cc2c[nH]c3ccc(Cl)cc23)NC(=O)[C@H](Cc2c[nH]c3ccccc23)NC(=O)[C@H](CC(=O)O)NC(C)=O)CSCc2cccc(n2)CSC[C@@H](C(N)=O)NC1=O
B5: Ac-Asp-Trp-5Clw-Hyp-Glu-leu-[Cys(2Lut)-Thp-Trp-Ile-Cys]-NH2 (peptide)
peptide: Ac-DW[Trp(5-Cl)][Hyp]E[dL]C[Thp]WIC-NH2
modifications: linker 7-11 via Pyridine(2,6-diCH2)
SMILES: CC[C@H](C)[C@@H]1NC(=O)[C@H](Cc2c[nH]c3ccccc23)NC(=O)C2(CCOCC2)NC(=O)[C@@H](NC(=O)[C@@H](CC(C)C)NC(=O)[C@H](CCC(=O)O)NC(=O)[C@@H]2C[C@@H](O)CN2C(=O)[C@H](Cc2c[nH]c3ccc(Cl)cc23)NC(=O)[C@H](Cc2c[nH]c3ccccc23)NC(=O)[C@H](CC(=O)O)NC(C)=O)CSCc2cccc(n2)CSC[C@@H](C(N)=O)NC1=O
B6: Ac-Asp-Trp-5Clw-Hyp-Glu-leu-[Cys(2Lut)-Thp-Ser-Ile-Cys]-NH2 (peptide)
peptide: Ac-DW[Trp(5-Cl)][Hyp]E[dL]C[Thp]SIC-NH2
modifications: linker 7-11 via Pyridine(2,6-diCH2)
SMILES: CC[C@H](C)[C@@H]1NC(=O)[C@H](CO)NC(=O)C2(CCOCC2)NC(=O)[C@@H](NC(=O)[C@@H](CC(C)C)NC(=O)[C@H](CCC(=O)O)NC(=O)[C@@H]2C[C@@H](O)CN2C(=O)[C@H](Cc2c[nH]c3ccc(Cl)cc23)NC(=O)[C@H](Cc2c[nH]c3ccccc23)NC(=O)[C@H](CC(=O)O)NC(C)=O)CSCc2cccc(n2)CSC[C@@H](C(N)=O)NC1=O
B7: Ac-Asp-Trp-5Clw-Hyp-Glu-leu-[Cys(2Lut)-Thp-Leu-Leu-Cys]-NH2 (peptide)
peptide: Ac-DW[Trp(5-Cl)][Hyp]E[dL]C[Thp]LLC-NH2
modifications: linker 7-11 via Pyridine(2,6-diCH2)
SMILES: CC(=O)N[C@@H](CC(=O)O)C(=O)N[C@@H](Cc1c[nH]c2ccccc12)C(=O)N[C@@H](Cc1c[nH]c2ccc(Cl)cc12)C(=O)N1C[C@H](O)C[C@H]1C(=O)N[C@@H](CCC(=O)O)C(=O)N[C@H](CC(C)C)C(=O)N[C@H]1CSCc2cccc(n2)CSC[C@@H](C(N)=O)NC(=O)[C@H](CC(C)C)NC(=O)[C@H](CC(C)C)NC(=O)C2(CCOCC2)NC1=O
B8: Ac-Asp-Trp-5Clw-Hyp-Glu-leu-[Cys(2Lut)-Thp-Leu-Tle-Cys]-NH2 (peptide)
peptide: Ac-DW[Trp(5-Cl)][Hyp]E[dL]C[Thp]L[Tle]C-NH2
modifications: linker 7-11 via Pyridine(2,6-diCH2)
SMILES: CC(=O)N[C@@H](CC(=O)O)C(=O)N[C@@H](Cc1c[nH]c2ccccc12)C(=O)N[C@@H](Cc1c[nH]c2ccc(Cl)cc12)C(=O)N1C[C@H](O)C[C@H]1C(=O)N[C@@H](CCC(=O)O)C(=O)N[C@H](CC(C)C)C(=O)N[C@H]1CSCc2cccc(n2)CSC[C@@H](C(N)=O)NC(=O)[C@H](C(C)(C)C)NC(=O)[C@H](CC(C)C)NC(=O)C2(CCOCC2)NC1=O
B9: DOTA-Ttds-Asp-Trp-5Clw-Pro-Glu-leu-[Dap(3MeBz)-Aib-Leu-Ile-AET] (peptide)
peptide: {DOTA-Ttds}-DW[Trp(5-Cl)]PE[dL][Dap][Aib]LI[Cysteamide]
modifications: linker (positions not given here) via 3‑methylbenzoyl; not fully specified (bridges); printed as DOTA-Ttds-Asp-Trp-5Clw-Pro-Glu-leu-[Dap(3MeBz)-Aib-Leu-Ile-AET]

What follows are binders tested against human Gastric Inhibitory Peptide Receptor (GIPR) (human) (UniProt P48546) (assay: FACS competition vs biotinylated GIP-057 on CHO-K1-hGIPR cells; category A: pIC50 >8.0).
Sequence of human Gastric Inhibitory Peptide Receptor (GIPR) (human) (P48546 22-466 limits assumed): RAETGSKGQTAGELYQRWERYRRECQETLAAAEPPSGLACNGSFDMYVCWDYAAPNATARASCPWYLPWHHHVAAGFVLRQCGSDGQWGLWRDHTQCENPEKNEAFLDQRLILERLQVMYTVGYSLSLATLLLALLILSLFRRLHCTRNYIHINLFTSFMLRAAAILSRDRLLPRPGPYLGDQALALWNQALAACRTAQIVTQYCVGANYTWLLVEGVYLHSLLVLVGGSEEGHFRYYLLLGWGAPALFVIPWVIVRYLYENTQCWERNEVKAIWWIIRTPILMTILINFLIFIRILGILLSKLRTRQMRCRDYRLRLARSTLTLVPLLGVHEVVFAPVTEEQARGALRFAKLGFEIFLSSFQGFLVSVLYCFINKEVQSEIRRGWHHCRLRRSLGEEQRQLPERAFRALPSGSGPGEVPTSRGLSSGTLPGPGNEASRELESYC

pIC50, > 8 pic50:
B1, B2, B3, B4, B5, B6, B7, B8, Ac-DW[Trp(5-Cl)][Pro(trans-4-NH2)]E[dL]C[Thp]LIC-NH2 (linker 7-11 via 2Lut″) [Ac-Asp-Trp-5Clw-Tap-Glu-leu-[Cys(2Lut)-Thp-Leu-Ile-Cys]-NH2], B9, Ac-DW[Trp(5-Cl)][Hyp]E[dL]C[Thp]LIC-NH2 (linker 7-11 via mli) [Ac-Asp-Trp-5Clw-Hyp-Glu-leu-[Cys(mli)-Thp-Leu-Ile-Cys]-NH2], Ac-DW[Trp(5-Cl)][Hyp]E[dL]C[Thp]LI[hCys]-NH2 (linker 7-11 via mli) [Ac-Asp-Trp-5Clw-Hyp-Glu-leu-[Cys(mli)-Thp-Leu-Ile-Hcy]-NH2], {AGLU-Glutaryl}-DW[Trp(5-Cl)][Pro(trans-4-NH2)]E[dL]C[Api](DO3AM)LIC-{APAc-dE(AGLU)-NH2} (linker 7-11 via Pyridine(2,6-diCH2)) [AGLU-Glutar-Asp-Trp-5Clw-Tap-Glu-leu-[Cys(2Lut)-Apc(DOTAM)-Leu-Ile-Cys]-APAc-glu(AGLU)-NH2], {AGLU-Glutaryl}-DW[Trp(5-Cl)][Pro(trans-4-NH2)]E[dL]C[αMeK](DOTA)LIC-{APAc-dE(AGLU)-NH2} (linker 7-11 via Pyridine(2,6-diCH2)) [AGLU-Glutar-Asp-Trp-5Clw-Tap-Glu-leu-[Cys(2Lut)-Amk(DOTA)-Leu-Ile-Cys]-APAc-glu(AGLU)-NH2], Ac-D[Trp(5-Cl)][Trp(5-Cl)][Hyp]E[dL]C[Thp]LIC-NH2 (linker 7-11 via Pyridine(2,6-diCH2)) [Ac-Asp-5Clw-5Clw-Hyp-Glu-leu-[Cys(2Lut)-Thp-Leu-Ile-Cys]-NH2]

From patent publication US20250296971A1, “GASTRIC INHIBITORY PEPTIDE RECEPTOR LIGANDS” (priority 2021, published 2025)
